The source of these data is paper PMC9652321, “Structural basis of human SNAPc recognizing proximal sequence element of snRNA promoter”.

Residue numbers refer to the chain shown, from its start.

Series [1] concerns the target T1, mSNAPc#2 4Mu Y389A;R445A;R151A;W350A (Homo sapiens) (UniProt Q5SXM2+Q92966+Q16533+O75971).
T1 sequence 1: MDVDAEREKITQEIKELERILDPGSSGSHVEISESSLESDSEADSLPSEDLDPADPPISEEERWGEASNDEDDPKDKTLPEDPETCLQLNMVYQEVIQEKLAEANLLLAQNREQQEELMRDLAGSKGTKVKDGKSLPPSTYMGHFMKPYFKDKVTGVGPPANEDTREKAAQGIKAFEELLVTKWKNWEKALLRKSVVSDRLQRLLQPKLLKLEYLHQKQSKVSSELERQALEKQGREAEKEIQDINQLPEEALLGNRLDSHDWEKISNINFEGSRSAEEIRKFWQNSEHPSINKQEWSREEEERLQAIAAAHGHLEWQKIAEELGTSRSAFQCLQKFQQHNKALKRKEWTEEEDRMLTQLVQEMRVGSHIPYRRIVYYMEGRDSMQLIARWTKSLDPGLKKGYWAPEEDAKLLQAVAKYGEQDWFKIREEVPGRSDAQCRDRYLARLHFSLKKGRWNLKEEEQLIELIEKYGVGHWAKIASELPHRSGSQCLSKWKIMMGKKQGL
T1 sequence 2: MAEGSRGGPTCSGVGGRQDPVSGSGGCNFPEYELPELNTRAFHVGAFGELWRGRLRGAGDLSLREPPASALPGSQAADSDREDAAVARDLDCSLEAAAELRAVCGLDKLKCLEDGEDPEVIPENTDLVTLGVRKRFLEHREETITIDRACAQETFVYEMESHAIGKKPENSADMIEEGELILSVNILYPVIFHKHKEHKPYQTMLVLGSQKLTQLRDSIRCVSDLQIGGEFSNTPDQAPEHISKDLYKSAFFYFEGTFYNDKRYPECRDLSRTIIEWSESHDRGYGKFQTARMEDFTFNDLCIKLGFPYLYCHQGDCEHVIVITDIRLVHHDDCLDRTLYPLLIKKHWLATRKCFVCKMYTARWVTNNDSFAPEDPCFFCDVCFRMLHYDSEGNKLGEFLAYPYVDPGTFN
T1 sequence 3: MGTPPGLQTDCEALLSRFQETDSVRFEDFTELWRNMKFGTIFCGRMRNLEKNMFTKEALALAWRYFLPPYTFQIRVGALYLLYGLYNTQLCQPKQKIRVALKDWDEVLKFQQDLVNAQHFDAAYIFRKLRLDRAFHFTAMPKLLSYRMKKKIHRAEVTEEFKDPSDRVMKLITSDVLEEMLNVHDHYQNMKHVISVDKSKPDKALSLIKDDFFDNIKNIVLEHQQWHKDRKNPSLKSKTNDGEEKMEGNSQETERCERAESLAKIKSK
T1 sequence 4: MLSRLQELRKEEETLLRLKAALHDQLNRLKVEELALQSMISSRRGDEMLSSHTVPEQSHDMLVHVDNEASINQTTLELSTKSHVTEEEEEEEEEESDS
Put plainly: SPR. The following applies: EMSA: 100 mM KCl, 25 mM HEPES-K pH 7.6, 12.5 mM MgCl2, 10 uM ZnCl2, 0.1 mM EDTA, 10% glycerol, 3 mM DTT, 0.5 mM PMSF, 50 nM DNA, RT 30 min; SPR: 100 mM KCl, 12.

Series [2] deals with T2, mSNAPc#2 5Mu Y389A;R445A;R151A;K194A;W350A (Homo sapiens) (UniProt Q5SXM2+Q92966+Q16533+O75971).
T2 sequence 1: T1 sequence 1
T2 sequence 2: T1 sequence 2 with K194A
T2 sequence 3: T1 sequence 3
T2 sequence 4: T1 sequence 4
Description: SPR. The following applies: EMSA: 100 mM KCl, 25 mM HEPES-K pH 7.6, 12.5 mM MgCl2, 10 uM ZnCl2, 0.1 mM EDTA, 10% glycerol, 3 mM DTT, 0.5 mM PMSF, 50 nM DNA, RT 30 min; SPR: 100 mM KCl, 12.

The next series has as its target T3, mSNAPc#2 WT (Homo sapiens, UniProt Q5SXM2;Q92966;Q16533;O75971 1-505;1-411;1-268;1-98).
T3 sequence 1: T1 sequence 1 with A389Y, A445R
T3 sequence 2: T1 sequence 2 with A151R, A350W
T3 sequence 3: T1 sequence 3
T3 sequence 4: T1 sequence 4
Description: EMSA; 200 and 1000 nM protein; EMSA: 100 mM KCl, 25 mM HEPES-K pH 7.6, 12.5 mM MgCl2, 10 uM ZnCl2, 0.1 mM EDTA, 10% glycerol, 3 mM DTT, 0.5 mM PMSF, 50 nM DNA, RT 30 min; SPR: 100 mM KCl, 12.5 mM MgCl2, 10 uM ZnCl2, 0.1 mM EDTA, 0.05% P20, 25 C. The following applies: protein: recombinant; tags: FLAG N-term SNAP190; 6xHis N-term SNAP43; copies: 1;1;1;1; label: 5'-FAM.

A further series addresses T4, mSNAPc#11 (rod module) (Homo sapiens, UniProt Q5SXM2;Q16533;O75971 1-143;148-268;1-98).
T4 sequence 1: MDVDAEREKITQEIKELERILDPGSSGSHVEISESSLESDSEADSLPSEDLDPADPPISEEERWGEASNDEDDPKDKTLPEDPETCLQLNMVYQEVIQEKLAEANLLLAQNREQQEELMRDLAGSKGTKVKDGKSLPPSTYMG
T4 sequence 2: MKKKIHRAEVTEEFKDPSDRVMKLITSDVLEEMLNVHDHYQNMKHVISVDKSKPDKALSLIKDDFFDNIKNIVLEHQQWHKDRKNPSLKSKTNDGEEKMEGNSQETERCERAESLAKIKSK
T4 sequence 3: T1 sequence 4
Put plainly: EMSA; 200 and 800 nM protein; EMSA: 100 mM KCl, 25 mM HEPES-K pH 7.6, 12.5 mM MgCl2, 10 uM ZnCl2, 0.1 mM EDTA, 10% glycerol, 3 mM DTT, 0.5 mM PMSF, 50 nM DNA, RT 30 min; SPR: 100 mM KCl, 12.5 mM MgCl2, 10 uM ZnCl2, 0.1 mM EDTA, 0.05% P20, 25 C. The settings on record: protein: recombinant; tags: Strep SNAP19; MBP SNAP190; MBP N-term SNAP43; copies: 1;1;1; label: 5'-FAM on positive strand (EMSA).

As for “TGCTTACCGTAACTTGAAAGTATTT (double strand) [25 bp hU6-1 PSE (SPR)]”, the results for the Kd in series [1] and in series [2] were 8.91 µM and 49 µM, respectively.

B1: PSE 6Sub (dsDNA)
DNA 1: TGCTTACCTGAACTTGCCATCATTT
DNA 2: AAATGATGGCAAGTTCAGGTAAGCA
Take B1: the binding result with mSNAPc#2 WT is “no binding”.

B2: 25 bp hU6-1 PSE (dsDNA)
DNA 1: TGCTTACCGTAACTTGAAAGTATTT
DNA 2: AAATACTTTCAAGTTACGGTAAGCA
As for B2, in the series with mSNAPc#11 (rod module), the binding result is reported as “no binding”.

B3: PSE 8Sub (dsDNA)
DNA 1: TGCTTACATGAACTTCCCATCATTT
DNA 2: AAATGATGGGAAGTTCATGTAAGCA
Turning to B3, in the series with mSNAPc#2 WT, the binding result is reported as “no binding”.
